From patent US11692029B2, “Therapy for glaucoma and optic neuropathy by targeting colony stimulating factors” (The Schepens Eye Research Institute, Inc., priority 2018, dated 2023)
“Also recorded” adds a separate entry of the source.

Assays:
microglia = test: microglial activation in a glaucoma mouse model; assay type: in vivo, mice; settings: intravitreal injection
Excerpt: Activation of microglia plays a critical role in the progression of neurodegeneration in glaucoma. Colony stimulating factor 1 (CSF1) and colony stimulating factor 2 (CSF2) are involved in glaucomatous neuron loss by regulating microglia function.

[1] = tested on: retinal ganglion cells (RGC); test: RGC loss (anti-Brn3a RGC counts, whole-mount retina) in microbead-induced glaucoma mice; assay type: in vivo; settings: MB-injected high-IOP mice, intravitreal treatment, versus vehicle/saline-treated mice
Excerpt: (§1) FIG. 3A is a line graph showing the intraocular pressure (IOP) level at baseline and up to 42 days/6 weeks post-MB injection of mice receiving either intravitreal injections of CSF1R Ab, CSF2, CSF1R Ab+CSF2 or control vehicle at D3 and D7. FIG. 3B is a bar graph showing the ratio of positive scotopic threshold response (pSTR) of glaucoma eye to contralateral normal eye. FIG. 3C is a bar graph showing the contrast sensitivity (CS) of the OMR. FIG. 3D is a bar graph showing Retinal Ganglion Cells (RGC) density of control (Ctr), vehicle (Veh) and CSF1R Ab, CSF2 and CSF2+CSF1 Ab-treated groups. Note Ctr group are the uninjured eyes. FIGS. 3E-3G are photomicrographs of Brn3a+RGCs (red) at 6 week post-injection of microbeads. In these figures (FIGS. 3A-G), ‘#’ and ‘*’ represents statistical analysis comparing to control and vehicle group, respectively. *, ** and *** represent P value <0.05, 0.01 and 0.001, respectively. #, ## and ### represent P value <0.05, <0.01 and <0.001.
(§2) FIG. 7 is a schematic representation showing the experimental design. […]
Microbeads (MB) were injected into the anterior chamber of adult B6 mice to induce high IOP. The expression of CSF1/2 and their receptors was examined by immunostaining and quantitative polymerase chain reaction (qPCR) at different time points after MB injection. […]

retinal function (pSTR) = test: positive scotopic threshold response (pSTR) in microbead-induced glaucoma mice; assay type: in vivo; settings: MB-induced glaucomatous mice, intravitreal treatment, 4 and 6 weeks after MB injection, versus vehicle
Excerpt: as §1, §2
The function of retinal ganglion cells (RGCs) can be non-invasively assessed in experimental and genetic models of glaucoma by means of variants of the ERG technique that emphasize the activity of inner retina neurons. […]

visual function = visual function (contrast sensitivity and visual acuity) in microbead-induced glaucoma mice; assay type: in vivo; settings: MB-induced glaucomatous mice, intravitreal treatment, 4 and 6 weeks after MB injection, versus vehicle
Excerpt: as §1, with “<0.001. […] FIG. 7 is a schematic representation showing the experimental design. It was hypothesized that inhibiting CSF1 by administration of CSF1R antibody (CSF1R Ab) and/or promoting CSF2 signaling protect RGC against glaucomatous damage. Four experimental groups were proposed: following MB-injection to induce high IOP, mice received treatment of vehicle (PBS), CSF1R Ab, CSF2, or CSF1R Ab+CSF2 were studied. […]” for “<0.001.”

[2] = listed as CSF2 recombinant protein

B1: CSF2: Granulocyte-macrophage colony-stimulating factor recombinant protein; exemplary source Peprotech Recombinant Murine GM-CSF, Cat #: 315-03 (protein, UniProt P01587 18-141, looked up)
Granulocyte-macrophage …: APTRSPITVTRPWKHVEAIKEALNLLDDMPVTLNEEVEVVSNEFSFKKLTCVQTRLKIFEQGLRGNFTKLKGALNMTASYYQTYCPPTPETDCETQVTTYADFIDSLKTFLTDIPFECKKPGQK
microglial activation (microglia): significantly suppressed microglial activation
RGC loss [1]: decreased RGC loss; also recorded: reduced or attenuated glaucomatous RGC loss
RGC loss [1, 2]: protected the loss of retinal ganglion cells (RGCs)
pSTR amplitude (retinal function (pSTR)): pSTR increased
visual function (vision contrast sensitivity and visual acuity) (visual function): visual function increased
visual function (vision contrast sensitivity and visual acuity) (visual function; [2]): protected the loss of retinal ganglion cells (RGCs) and vision function
